How the values were obtained:
[1] = target: PhaF phasin from Pseudomonas putida KT2440 (Pseudomonas putida KT2440); assay: AUC; sedimentation velocity; 38 µM PhaF (3.8 to 38 µM, data not shown) in 20 mM sodium phosphate pH 7.0, 150 mM NaCl, 48000 rpm, 20 °C; c(s) analysis
[2] = target: PhaF phasin from Pseudomonas putida KT2440 (Pseudomonas putida KT2440); assay: AUC; sedimentation equilibrium, short columns, 10000 and 16000 rpm, 20 mM sodium phosphate pH 7.0, 150 mM NaCl, 20 °C; single-species fit

stoichiometry N [1]: 4 | stoichiometry N [2]: 4
Substance: PhaF phasin from Pseudomonas putida KT2440 (natural protein)
